In patent US20220403022A1 (Merck KGaA, published 2022):
Positions count from the first letter of the chain named. “And” between values parts separate entries of the source, which are not always exact repeats. Equal entries are not always repeated.

T1: CD226 (UniProt Q15762 19-247, limits assumed)
T1 construct: also called related family member protein CD226
T1 sequence (looked up): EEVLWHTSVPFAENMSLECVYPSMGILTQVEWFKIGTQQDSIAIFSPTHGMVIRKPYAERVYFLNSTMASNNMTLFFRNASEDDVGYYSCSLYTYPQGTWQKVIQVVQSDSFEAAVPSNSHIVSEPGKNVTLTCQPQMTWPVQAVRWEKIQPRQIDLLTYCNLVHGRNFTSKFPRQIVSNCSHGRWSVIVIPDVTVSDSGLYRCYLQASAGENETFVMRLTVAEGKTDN

T2: human TIGIT on cells (primary T cells, transfected HEK293 cells, Jurkat reporter cells, NK cells) (human, UniProt Q495A1 22-244)
T2 sequence: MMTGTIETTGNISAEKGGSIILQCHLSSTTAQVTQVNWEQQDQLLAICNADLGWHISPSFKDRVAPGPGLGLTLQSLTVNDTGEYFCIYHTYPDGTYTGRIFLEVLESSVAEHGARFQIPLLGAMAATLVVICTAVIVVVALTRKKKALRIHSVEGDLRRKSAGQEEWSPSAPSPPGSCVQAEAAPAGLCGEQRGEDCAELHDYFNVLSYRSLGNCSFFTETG

T3: human TIGIT ECD expressed on the CHO-S cell surface (human, UniProt Q495A1 22-141)
T3 sequence: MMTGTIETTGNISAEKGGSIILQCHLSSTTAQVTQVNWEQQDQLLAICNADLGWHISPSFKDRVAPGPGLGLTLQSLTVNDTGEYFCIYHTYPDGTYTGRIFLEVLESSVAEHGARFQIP

T4: His-tagged human TIGIT (human, UniProt Q495A1 22-141)
T4 construct: soluble analyte in SPR
T4 sequence: T3 sequence

B1: 3965D08 (antibody, human IgG1, V domains shown)
VH: EVQLVQSGSELKKPGASVKVSCKASGYTFTSYPMNWVRQAPGQGLEWMGWINTNTGNPTYAQGFTGRFVFSLDTSVSTAYLQISSLKAEDTAVYYCARTGYSGSYYWFDPWGQGTLVTVSS
VL: DIRLTQSPSFLSASVGDRVTITCRASQGISSYLAWYQQKPGKAPKFLIYAASTLQSGVPSRFSGSGSGTEFTLTISSLQPEDFATYYCQQLNSYLTFGQGTRLEIK
notes: constant regions correspond to those of H03-12 (human IgG1, kappa)
B2: 3963H03 (antibody, human IgG1, kappa, V domains shown)
VH: EIQLVQSGSELKKPGASVKVSCKASGYTFTSYPMNWVRQAPGQGLEWMGWINTNTGNPTYAQGFTGRFVFSLDTSVSTAYLQISSLKAEDTAVYYCARVGGYSVDEYAFDVWGQGTMVTVSS
VL: AIRLTQSPSFLSASVGDRVTITCRASQGISSYLAWYQQKPGKAPKLLIYAASTLQSGVPSRFSGSGSGTEFTLTISSLQPEDFATYYCQQLNSYPTFGGGTKVEIKR
notes: fully human IgG1 kappa, B-cell cloning hit from OmniRat; also called 3963H03 VH; 3963H03 VK
B3: 3964A06 (antibody, human IgG1, V domains shown)
VH: B2 VH with I2V, S31A, D105Y, E106D, V111I
VL: B1 VL with R3Q, F46L, L95P, Q99G, R102K, L103V
B4: 3966C11 (antibody, human IgG1, V domains shown)
VH: B2 VH with Y60N, S103G, V104G, D105Y, E106D, V111I
VL: B1 VL with R3Q, F46L, L95P, Q99G, R102K
notes: as for B1
B5: 7729G05 (antibody, V domains shown)
VH: B2 VH with E1Q, I2V, Y102F, S103T, D105P, V111I, M117T
VL: B1 VL with F46L, Q89G, L91V, N92M, S93R, L95P, T96A, Q99G, R102K, L103V
notes: constant regions correspond to those of H03-12
B6: 7728B03 (antibody, V domains shown)
VH: B2 VH with E1Q, I2M, V99T, A108S, V111I, M117T
VL: DIQLTQSPSFLSASVGDRVTITCRASQGISSYLAWYQQKPGKAPKLLIYAASTLQSGVPSRFSGSGSGTEFTLTISSLQPEDFATYYCHQTIFRPTFGGGTKVEIK
notes: as for B5
B7: 3963H03-12-muIgG2c (antibody, V domains shown)
VH: B2 VH with E1Q, I2V, M117L
VL: B6 VL with H89Q, T91L, I92S, F93S, R94Y
notes: also called version of 3963H03-12 with a murine immunoglobulin

target: T1, CD226; assay: ELISA EC50 assay

binding result	Binder
no binding	B1
no binding	B2
no binding	B3
no binding	B4

target: T5, PD-L1 (UniProt Q9NZQ7 19-238, limits assumed); assay: ELISA EC50 assay
T5 construct: also called unrelated protein PD-L1
T5 sequence (Q9NZQ7 19-238 limits assumed): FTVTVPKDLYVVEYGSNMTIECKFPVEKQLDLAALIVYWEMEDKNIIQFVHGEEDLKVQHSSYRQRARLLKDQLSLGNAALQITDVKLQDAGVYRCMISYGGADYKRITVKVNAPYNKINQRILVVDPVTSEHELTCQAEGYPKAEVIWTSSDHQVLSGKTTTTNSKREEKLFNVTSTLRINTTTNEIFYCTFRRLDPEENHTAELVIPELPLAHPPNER

binding result	Binder
no binding	B1
no binding	B2
no binding	B3
no binding	B4

target: T2, human TIGIT on cells (primary T cells, …); assay: cell-based or functional assay

EC50 [µg/mL]	Binder
6.3	B2

target: T3, human TIGIT ECD expressed on the CHO-S …; assay: cell-based or functional assay

ADCC EC50, nM (Donor 1005-4464) [nM]	ADCC EC50, nM (Donor 1102-7215) [nM]	ADCC EC50, nM (Donor 1106-0557) [nM]	Binder
0.028	0.069	0.08	B2

target: T6, cynomolgus monkey TIGIT ECD expressed on the CHO-S cell surface (cynomolgus monkey); assay: flow cytometry on CHO-S cells expressing cyno TIGIT ECD
T6 construct: extracellular domain; also called CHO-S-cynoTIGIT

EC50 [nM]	Binder
3.6	B2

target: T3, human TIGIT ECD expressed on the CHO-S …; assay: flow cytometry on CHO-S cells expressing human TIGIT ECD

EC50 [nM]	Binder
4.7	B2

target: T3, human TIGIT ECD expressed on the CHO-S …; assay: as above; remark: another data set of the same source

EC50 (read off the curve) [nM]	Binder
~5	B1
~9	B3
~9	B4

target: T4, His-tagged human TIGIT; assay: SPR, IgG captured on anti-human Fc, His-tagged human TIGIT injected
Protocol: (§1) Antibodies were then captured on the CM5 biosensor chip. Binding measurements were performed using the running HBS-EP+ buffer. Two-fold dilution series of his-tagged human TIGIT, with starting concentrations between 100 nM and 10 nM, were injected at a flow rate of 30 μl/min at 25° C. Dissociation rates (koff, s-1) were calculated using a simple 1:1 Langmuir binding model (Biacore Evaluation Software).

koff [s⁻¹]	Binder
0.00063	B2

target: T4, His-tagged human TIGIT; assay: as above; remark: another data set of the same source
Protocol: as §1

koff [s⁻¹]	Binder
0.00063	B2

target: T4, His-tagged human TIGIT; assay: SPR Biacore, antibody captured on anti-human Fc, His-tagged TIGIT injected
Protocol: (§2) Binding affinities of anti-TIGIT hit candidate antibodies to human TIGIT and cynomolgus monkey TIGIT were measured by Surface Plasmon Resonance (SPR) using a GE Healthcare Biacore 4000 instrument and a GE Healthcare Biacore T200 instrument as follows. […] Antibodies were then captured on the CM5 biosensor chip to achieve approximately 200 response units (RU). Binding measurements were performed using the running HBS-EP+ buffer. 2-fold dilution series with starting concentration between 100 nM and 10 nM of His-tagged human and cynomolgus monkey (cyno) TIGIT proteins were injected at a flow rate of 30 μl/min at 25° C. Association rates (kon, M-1 s-1) and dissociation rates (koff, s-1) were calculated using a simple 1:1 Langmuir binding model (Biacore Evaluation Software). The equilibrium dissociation constant (KD, M) was calculated as the ratio of koff/kon.

Kd	koff [s⁻¹]	kon [M⁻¹ s⁻¹]	Binder
10.3 nM	0.00497	482000	B1
3.37 nM and 3.4 nM	0.000407	121000	B2
0.0173 nM and < 0.05 nM	1.33e-05	767000	B5
0.0661 nM and 0.07 nM	2.15e-05	325000	B6
2.62 nM and 2.6 nM	0.000233	89100	B3
2.53 nM and 2.5 nM	0.000274	108000	B4

target: T7, His-tagged cynomolgus monkey TIGIT (cynomolgus monkey, UniProt A0A7N9I9V4 89-209); assay: as above
T7 construct: also called Cyno TIGIT; cynomolgus monkey TIGIT (Novoprotein cat. No. CP02)
T7 sequence (A0A7N9I9V4 entry or part of it): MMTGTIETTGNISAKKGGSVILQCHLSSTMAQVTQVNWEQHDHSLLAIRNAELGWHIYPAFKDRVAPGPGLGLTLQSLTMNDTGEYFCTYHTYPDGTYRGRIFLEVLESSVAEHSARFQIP
Protocol: as §2

Kd	koff [s⁻¹]	kon [M⁻¹ s⁻¹]	Binder
8.66 nM and 8.7 nM	0.00565	653000	B1
1.45 nM and 1.5 nM	0.000213	147000	B2
0.0211 nM and < 0.05 nM	1.23e-05	581000	B5
0.0519 nM and 0.05 nM	1.57e-05	303000	B6
1.11 nM and 1.1 nM	0.000122	109000	B3
1.41 nM and 1.4 nM	0.000167	118000	B4

target: T6, cynomolgus monkey TIGIT ECD expressed …; assay: flow cytometry on CHO-S cells expressing cynomolgus monkey TIGIT ECD

EC50 (read off the curve) [nM]	Binder
~3	B1
~8	B3
~7	B4

target: T3, human TIGIT ECD expressed on the CHO-S …; assay: flow cytometry blocking assay on CHO-S-hTIGIT cells, competitor muCD112; competitor muCD112; muIgG2c version

IC50 [µg/mL]	Binder
1.19	B7

target: T3, human TIGIT ECD expressed on the CHO-S …; assay: flow cytometry blocking assay on CHO-S-hTIGIT cells, competitor muCD155-Fc; competitor muCD155-Fc; muIgG2c version

IC50 [µg/mL]	Binder
0.291	B7
